From PMC8876501, “Structural and Functional Insight into the Mechanism of Bacillus subtilis 6S-1 RNA Release from RNA Polymerase”
Residue numbers refer to the chain shown, from its start. Numbers in names are those of the source.

Experiments:
[1] = target: T1, native sigmaA-RNA polymerase holoenzyme (Bacillus subtilis, UniProt P20429;P37870;P37871;P06224 1-314;1-1193;1-1199;1-371); assay: EMSA; 5 mM Mg2+, heparin 80 ng/uL; 40 mM Tris-HCl pH 8.0, 5 mM MgCl2, 160 mM KCl, 1 mM DTT, heparin 80 ng/uL, ~10 nM RNA, plus RNAP storage buffer; 30 min at 37 C; native 7.5% PAGE (10% for Fig 12); settings: protein: native, chain copies: 2;1;1;1, label: 5'-32P
T1 sequence (P20429 whole entry, chain 1 of 4): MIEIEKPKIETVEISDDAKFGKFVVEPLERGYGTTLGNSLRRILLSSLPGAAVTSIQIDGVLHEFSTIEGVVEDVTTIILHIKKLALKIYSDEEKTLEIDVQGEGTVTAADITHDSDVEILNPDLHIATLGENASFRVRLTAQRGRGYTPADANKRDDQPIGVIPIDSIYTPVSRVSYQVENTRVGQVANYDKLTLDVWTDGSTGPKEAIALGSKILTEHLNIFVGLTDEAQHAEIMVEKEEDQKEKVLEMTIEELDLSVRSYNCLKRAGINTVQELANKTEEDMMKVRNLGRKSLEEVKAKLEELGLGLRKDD
T1 sequence (P37870 whole entry, chain 2 of 4): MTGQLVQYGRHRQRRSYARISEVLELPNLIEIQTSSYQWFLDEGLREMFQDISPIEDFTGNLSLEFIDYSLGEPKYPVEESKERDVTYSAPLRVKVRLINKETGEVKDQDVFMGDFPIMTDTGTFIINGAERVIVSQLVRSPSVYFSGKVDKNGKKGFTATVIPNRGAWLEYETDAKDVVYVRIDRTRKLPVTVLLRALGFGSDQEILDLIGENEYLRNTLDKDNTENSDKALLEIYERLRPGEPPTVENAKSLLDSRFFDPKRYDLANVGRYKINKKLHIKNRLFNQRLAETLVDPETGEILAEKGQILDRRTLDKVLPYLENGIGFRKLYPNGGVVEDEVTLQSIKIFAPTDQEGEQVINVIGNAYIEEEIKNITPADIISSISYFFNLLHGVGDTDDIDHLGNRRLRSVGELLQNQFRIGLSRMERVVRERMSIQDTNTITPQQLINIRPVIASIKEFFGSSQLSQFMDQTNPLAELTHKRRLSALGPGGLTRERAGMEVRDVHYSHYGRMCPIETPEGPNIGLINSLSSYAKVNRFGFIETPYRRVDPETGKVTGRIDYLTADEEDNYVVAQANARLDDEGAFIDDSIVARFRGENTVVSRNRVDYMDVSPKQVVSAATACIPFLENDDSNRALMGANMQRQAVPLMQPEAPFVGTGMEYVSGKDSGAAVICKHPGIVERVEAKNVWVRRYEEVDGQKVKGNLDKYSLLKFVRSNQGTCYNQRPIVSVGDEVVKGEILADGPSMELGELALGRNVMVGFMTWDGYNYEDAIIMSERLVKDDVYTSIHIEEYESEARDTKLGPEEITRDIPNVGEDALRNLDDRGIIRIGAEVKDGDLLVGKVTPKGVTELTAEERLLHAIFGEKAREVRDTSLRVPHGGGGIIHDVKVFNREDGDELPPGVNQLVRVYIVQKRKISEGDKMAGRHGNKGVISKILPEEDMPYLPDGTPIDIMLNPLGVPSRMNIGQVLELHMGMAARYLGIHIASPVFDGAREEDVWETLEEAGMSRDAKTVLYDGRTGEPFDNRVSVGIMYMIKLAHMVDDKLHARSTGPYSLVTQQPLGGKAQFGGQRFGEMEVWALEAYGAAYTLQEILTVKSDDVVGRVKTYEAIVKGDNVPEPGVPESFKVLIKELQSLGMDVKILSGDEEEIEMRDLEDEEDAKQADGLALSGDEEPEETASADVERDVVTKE
T1 sequence (P37871 whole entry, chain 3 of 4): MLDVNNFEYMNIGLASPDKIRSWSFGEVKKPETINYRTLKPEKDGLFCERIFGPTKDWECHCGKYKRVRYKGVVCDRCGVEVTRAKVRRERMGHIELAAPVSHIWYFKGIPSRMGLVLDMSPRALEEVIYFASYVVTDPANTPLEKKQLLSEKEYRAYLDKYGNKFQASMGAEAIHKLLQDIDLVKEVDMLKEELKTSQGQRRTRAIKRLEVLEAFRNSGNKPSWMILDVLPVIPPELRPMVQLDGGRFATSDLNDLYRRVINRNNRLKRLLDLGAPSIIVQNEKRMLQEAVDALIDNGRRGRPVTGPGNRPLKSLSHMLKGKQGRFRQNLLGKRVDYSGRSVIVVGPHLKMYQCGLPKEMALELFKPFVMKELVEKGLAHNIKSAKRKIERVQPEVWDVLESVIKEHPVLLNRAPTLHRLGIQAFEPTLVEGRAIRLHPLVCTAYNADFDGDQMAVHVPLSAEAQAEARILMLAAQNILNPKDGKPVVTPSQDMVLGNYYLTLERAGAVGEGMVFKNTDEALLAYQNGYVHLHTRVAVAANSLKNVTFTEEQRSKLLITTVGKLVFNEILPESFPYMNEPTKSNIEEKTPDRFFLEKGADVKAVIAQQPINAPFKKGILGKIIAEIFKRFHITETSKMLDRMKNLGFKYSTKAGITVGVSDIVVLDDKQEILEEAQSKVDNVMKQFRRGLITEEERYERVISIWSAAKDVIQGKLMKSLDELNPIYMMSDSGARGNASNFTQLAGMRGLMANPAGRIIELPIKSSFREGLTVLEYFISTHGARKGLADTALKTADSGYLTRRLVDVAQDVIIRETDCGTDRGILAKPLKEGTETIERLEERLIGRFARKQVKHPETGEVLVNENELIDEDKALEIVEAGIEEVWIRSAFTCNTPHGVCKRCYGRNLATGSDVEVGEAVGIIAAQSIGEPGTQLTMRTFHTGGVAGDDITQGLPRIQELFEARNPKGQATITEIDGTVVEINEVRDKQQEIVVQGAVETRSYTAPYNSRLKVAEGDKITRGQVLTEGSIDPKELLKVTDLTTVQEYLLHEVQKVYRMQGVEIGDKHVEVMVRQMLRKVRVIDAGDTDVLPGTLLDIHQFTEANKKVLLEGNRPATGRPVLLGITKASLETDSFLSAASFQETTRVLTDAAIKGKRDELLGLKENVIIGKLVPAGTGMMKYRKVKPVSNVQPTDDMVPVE
T1 sequence (P06224 whole entry, chain 4 of 4): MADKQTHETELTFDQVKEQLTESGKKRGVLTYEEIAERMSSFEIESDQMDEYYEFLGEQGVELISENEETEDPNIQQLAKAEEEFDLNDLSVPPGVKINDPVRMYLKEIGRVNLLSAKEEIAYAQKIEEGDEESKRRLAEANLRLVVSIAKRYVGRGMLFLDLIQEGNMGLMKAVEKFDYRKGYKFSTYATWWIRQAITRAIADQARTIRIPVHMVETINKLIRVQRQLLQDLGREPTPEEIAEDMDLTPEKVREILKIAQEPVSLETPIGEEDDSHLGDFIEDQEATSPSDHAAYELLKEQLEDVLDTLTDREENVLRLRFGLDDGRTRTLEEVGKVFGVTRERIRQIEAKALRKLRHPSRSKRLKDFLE

[2] = target: T2, sigmaA-RNA polymerase holoenzyme (native or His-tagged SG7 preparation, not specified for this assay) (Bacillus subtilis, UniProt P20429;P37870;P37871;P06224 1-314;1-1193;1-1199;1-371); assay: EMSA; almost three-fold; K1/2 only in graph; 40 mM Tris-HCl pH 8.0, 5 mM MgCl2, 160 mM KCl, 1 mM DTT, heparin 80 ng/uL, ~10 nM RNA, plus RNAP storage buffer; 30 min at 37 C; native 7.5% PAGE (10% for Fig 12); settings: protein: native; chain copies: 2;1;1;1; label: 5'-32P
T2 sequence (P20429 whole entry, chain 1 of 4): as the sequence (P20429 whole entry, chain 1 of 4) above
T2 sequence (P37870 whole entry, chain 2 of 4): as the sequence (P37870 whole entry, chain 2 of 4) above
T2 sequence (P37871 whole entry, chain 3 of 4): as the sequence (P37871 whole entry, chain 3 of 4) above
T2 sequence (P06224 whole entry, chain 4 of 4): as the sequence (P06224 whole entry, chain 4 of 4) above

[3] = target: T2, sigmaA-RNA polymerase holoenzyme …; assay: EMSA; K1/2 printed only in graph; 40 mM Tris-HCl pH 8.0, 5 mM MgCl2, 160 mM KCl, 1 mM DTT, heparin 80 ng/uL, ~10 nM RNA, plus RNAP storage buffer; 30 min at 37 C; native 7.5% PAGE (10% for Fig 12); settings: protein: native; chain copies: 2;1;1;1; label: 5'-32P
[4] = target: T1, native sigmaA-RNA polymerase holoenzyme; assay: EMSA; pLNA pre-annealed; 40 mM Tris-HCl pH 8.0, 5 mM MgCl2, 160 mM KCl, 1 mM DTT, heparin 80 ng/uL, ~10 nM RNA, plus RNAP storage buffer; 30 min at 37 C; native 7.5% PAGE (10% for Fig 12); settings: protein: native; chain copies: 2;1;1;1; label: 5'-32P on 6S-1 RNA; pLNA annealed to 6S-1 RNA from nt 40 upstream
[5] = target: T1, native sigmaA-RNA polymerase holoenzyme; assay: EMSA; pRNA pre-annealed; 40 mM Tris-HCl pH 8.0, 5 mM MgCl2, 160 mM KCl, 1 mM DTT, heparin 80 ng/uL, ~10 nM RNA, plus RNAP storage buffer; 30 min at 37 C; native 7.5% PAGE (10% for Fig 12); settings: protein: native; chain copies: 2;1;1;1; label: 5'-32P on 6S-1 RNA; pRNA annealed to 6S-1 RNA from nt 40 upstream
[6] = target: T1, native sigmaA-RNA polymerase holoenzyme; assay: EMSA; Kd printed only in graph; 40 mM Tris-HCl pH 8.0, 5 mM MgCl2, 160 mM KCl, 1 mM DTT, heparin 80 ng/uL, ~10 nM RNA, plus RNAP storage buffer; 30 min at 37 C; native 7.5% PAGE (10% for Fig 12); settings: protein: native; chain copies: 2;1;1;1; label: 5'-32P
[7] = target: T1, native sigmaA-RNA polymerase holoenzyme; assay: EMSA; up to 3-fold with other RNAP preparations; 40 mM Tris-HCl pH 8.0, 5 mM MgCl2, 160 mM KCl, 1 mM DTT, heparin 80 ng/uL, ~10 nM RNA, plus RNAP storage buffer; 30 min at 37 C; native 7.5% PAGE (10% for Fig 12); settings: protein: native; chain copies: 2;1;1;1; label: 5'-32P

B1: 6S78 RNA (structured_RNA)
RNA: CCUAGUUUUGACCGAACAUUUUUUUGAUUUGGGAGCCCGCAGGGCACCCACCUGCUGAGAGCGGGUUCAAAACAAAGG
- apparent K (half saturation) [1]: ~1000 nM

B2: 6S82cp RNA (structured_RNA)
RNA: GGGCACCCACCUGCUGAGAGCGGGUUCAAAACAAAGGAAAGCCACCUAGUUUUGACCGAACAUUUUUUUGAUUUGGGAGCCC
- apparent K (half saturation) ([1]; artificial loop capping P2): ~1000 nM

B3: wt 6S-1 RNA (190 nt) (structured_RNA)
RNA: AGUCCUGAUGUGUUAGUUGUACACCUAGUUUUGACCGAACAUUUUUUUGAUUUGGGAGCCCGCAUUUUUAAAUGGCGUACAUGCCUCUUUUCAUUCGGUAAAGAGGACUUACAAGAUUUAAAAGAGGGCACCCACCUGCUGAGAGCGGGUUCAAAACAAAGGAAAGCUGCAACGGCACUAUUGGGACUUU
- apparent K (half saturation) ([1]; rod-shaped, central bubble flanked by two helical arms): ~100 nM

B4: C44/45 6M 6S-1 RNA (structured_RNA)
RNA: B3 RNA with U30C, U31A, U32A, A34G, U44C, U45C, A154U, A155G
- binding signal [2]: ~3 fold lower affinity vs wt 6M

B5: C44/45 8M 6S-1 RNA (structured_RNA)
RNA: B3 RNA with U30C, U31A, U32A, A34G, U44C, U45C, U151C, A153U, A154U, A155G
- binding signal [3]: ~1.5 fold lower affinity vs wt 8M

B6: 6S-1 RNA:pLNA 8-mer (mixed)
RNA: B3 RNA
DNA: GTTCGGTC
modifications: strand 2 all-LNA
- binding result [4]: no binding

B7: 6S-1 RNA:pLNA 7-mer (mixed)
RNA: B3 RNA
DNA: GTTCGGT
modifications: strand 2 LNA, iso-sequential to pRNA (first 7 nt inferred)
- binding result [4]: no binding

B8: 6S-1 RNA:pRNA 14-mer (structured_RNA)
RNA 1: B3 RNA
RNA 2: GUUCGGUCAAAACU
- binding result [5]: no binding

B9: 6S-1 RNA A50U (structured_RNA)
RNA: B3 RNA with A50U
- binding signal [6]: ~2 fold Kd increase vs wt

B10: 6S-1 RNA C44/45 (structured_RNA)
RNA: B3 RNA with U44C, U45C
- binding signal [7]: ~2 fold lower affinity vs wt

B11: 6S-1 RNA:pLNA 6-mer (mixed)
RNA: B3 RNA
DNA: GTTCGG
modifications: strand 2 LNA, iso-sequential to pRNA (first 6 nt inferred)
- binding result [4]: no binding
